Measured values: the Immune Epitope Database (IEDB)
Values belong to the sequence of their own block, whether it stands above or below them.

Columns and labels:
HLA-C*05:01 = test: IEDB peptide-MHC binding, purified MHC/direct/fluorescence; filed as Kd, often an IC50 or EC50 that approximates it; ≥ and ≤ were set here for values at or beyond the usual limits of such assays
HLA-C*12:03 = test: as above; details: source organism: Toxoplasma gondii RH
HLA-A*68:02 = test: IEDB peptide-MHC binding, purified MHC/competitive/fluorescence; filed as Kd, often an IC50 or EC50 that approximates it; ≥ and ≤ were set here for values at or beyond the usual limits of such assays; details: source organism: Toxoplasma gondii RH
HLA-B*07:02 [1] = test: IEDB peptide-MHC binding, purified MHC/competitive/fluorescence; ≥ and ≤ were set here for values at or beyond the usual limits of such assays
HLA-B*08:01 = test: IEDB peptide-MHC binding, purified MHC/competitive/fluorescence; filed as Kd, often an IC50 or EC50 that approximates it; ≥ and ≤ were set here for values at or beyond the usual limits of such assays; details: source organism: Escherichia coli
HLA-B*40:01 [2] = test: as above
HLA-A*01:01 [3] = test: IEDB peptide-MHC binding, purified MHC/competitive/fluorescence; ≥ and ≤ were set here for values at or beyond the usual limits of such assays
HLA-A*02:01 [4] = test: as above; details: source organism: Zaire ebolavirus
HLA-C*03:03 = test: IEDB peptide-MHC binding, purified MHC/direct/fluorescence; filed as Kd, often an IC50 or EC50 that approximates it; ≥ and ≤ were set here for values at or beyond the usual limits of such assays; details: source organism: Mycobacterium tuberculosis C
HLA-C*08:02 = test: as above
HLA-B*15:01 = test: IEDB peptide-MHC binding, purified MHC/competitive/fluorescence; filed as Kd, often an IC50 or EC50 that approximates it; ≥ and ≤ were set here for values at or beyond the usual limits of such assays
HLA-B*18:01 = test: IEDB peptide-MHC binding, purified MHC/direct/fluorescence; filed as Kd, often an IC50 or EC50 that approximates it; ≥ and ≤ were set here for values at or beyond the usual limits of such assays
HLA-B*40:01 [5] = test: as above
HLA-C*14:02 = test: as above
HLA-A*01:01 [6] = test: as above; details: source organism: Mycobacterium tuberculosis
HLA-A*02:01 [7] = test: as above; details: source organism: Mycobacterium tuberculosis
HLA-A*03:01 [8] = test: as above; details: source organism: Mycobacterium tuberculosis
HLA-A*11:01 [9] = test: as above; details: source organism: Mycobacterium tuberculosis
HLA-A*29:02 = test: as above; details: source organism: Mycobacterium tuberculosis
HLA-A*31:01 = test: as above; details: source organism: Mycobacterium tuberculosis
HLA-A*69:01 = test: as above; details: source organism: Mycobacterium tuberculosis
HLA-B*08:03 = test: as above; details: source organism: Mycobacterium tuberculosis str. Haarlem
HLA-B*27:05 = test: as above; details: source organism: Mycobacterium tuberculosis
HLA-B*44:02 = test: as above; details: source organism: Mycobacterium tuberculosis
HLA-B*46:01 = test: as above; details: source organism: Mycobacterium tuberculosis
HLA-B*57:01 = test: as above; details: source organism: Mycobacterium tuberculosis
HLA-B*58:01 [10] = test: as above; details: source organism: Mycobacterium tuberculosis
HLA-B*07:02 [11] = test: IEDB peptide-MHC binding, purified MHC/competitive/radioactivity; filed as Kd, often an IC50 or EC50 that approximates it; ≥ and ≤ were set here for values at or beyond the usual limits of such assays; details: source organism: SARS coronavirus Tor2
HLA-B*35:01 [12] = test: as above; details: source organism: SARS coronavirus Tor2
HLA-B*51:01 = test: as above; details: source organism: SARS coronavirus Tor2
HLA-B*53:01 = test: as above; details: source organism: SARS coronavirus Tor2
HLA-B*54:01 = test: as above; details: source organism: SARS coronavirus Tor2
HLA-A*01:01 [13] = test: IEDB peptide-MHC binding, purified MHC/competitive/fluorescence; filed as Kd, often an IC50 or EC50 that approximates it; ≥ and ≤ were set here for values at or beyond the usual limits of such assays
HLA-B*35:01 [14] = test: as above
HLA-A*03:01 [15] = test: IEDB peptide-MHC binding, purified MHC/competitive/fluorescence; ≥ and ≤ were set here for values at or beyond the usual limits of such assays; details: source organism: Sudan ebolavirus
HLA-A*11:01 [16] = test: as above; details: source organism: Sudan ebolavirus
HLA-A*03:01 [17] = test: IEDB peptide-MHC binding, purified MHC/competitive/fluorescence; filed as Kd, often an IC50 or EC50 that approximates it; ≥ and ≤ were set here for values at or beyond the usual limits of such assays; details: source organism: Escherichia coli str. K-12 substr. MG1655
HLA-B*58:01 [18] = test: as above
HLA-B*07:02 [19] = test: as above; details: source organism: Yersinia pestis Antiqua
HLA-A*26:01 = test: as above; details: source organism: Escherichia coli str. K-12 substr. MG1655
[20] = source organism: Zaire ebolavirus
[21] = source organism: Shigella flexneri 5 str. 8401
[22] = source organism: Alto Paraguay hantavirus
[23] = source organism: Mycobacterium tuberculosis
[24] = source organism: Salmonella enterica subsp. enterica serovar Typhi
[25] = source organism: Escherichia coli str. K-12 substr. MG1655

Sequence: FLDPHPYYV
Kd (HLA-C*05:01; source organism: Toxoplasma gondii RH): ≤ 0.001 µM
Kd (HLA-C*12:03): 0.047 µM
Kd (HLA-A*68:02): 0.0563 µM

Sequence: VPSATKRWG
IC50 (HLA-B*07:02 [1]; [20]): 64.6 µM

Kd (HLA-B*08:01): 0.175 µM
Kd (HLA-B*40:01 [2]; source organism: Escherichia coli): 0.0048 µM
Sequence: HENARLRAL

Sequence: ASENSSAMV
IC50 (HLA-A*01:01 [3]; [20]): 43.5 µM
IC50 (HLA-A*02:01 [4]): ≥ 147 µM

Sequence: YLPDPTVGV
Kd (HLA-C*03:03): ≥ 20 µM
Kd (HLA-C*08:02; source organism: Mycobacterium tuberculosis C): ≥ 20 µM

Sequence: GELESAIGL
Kd (HLA-B*15:01; [21]): ≥ 20 µM
Kd (HLA-B*40:01 [2]; [21]): 0.0028 µM

Sequence: KEISNQEPL
Kd (HLA-B*18:01; [22]): 0.357 µM
Kd (HLA-B*40:01 [5]; [22]): 0.0032 µM
Kd (HLA-C*14:02; source organism: Orthohantavirus dobravaense): 2.07 µM

Sequence: WMRGRGRAL
Kd (HLA-A*01:01 [6]): ≥ 20 µM
Kd (HLA-A*02:01 [7]): ≥ 20 µM
Kd (HLA-A*03:01 [8]): ≥ 20 µM
Kd (HLA-A*11:01 [9]): ≥ 20 µM
Kd (HLA-A*29:02): ≥ 20 µM
Kd (HLA-A*31:01): ≥ 20 µM
Kd (HLA-A*69:01): ≥ 20 µM
Kd (HLA-B*08:03): ≥ 20 µM
Kd (HLA-B*18:01; [23]): ≥ 20 µM
Kd (HLA-B*27:05): ≥ 20 µM
Kd (HLA-B*40:01 [5]; [23]): ≥ 20 µM
Kd (HLA-B*44:02): ≥ 20 µM
Kd (HLA-B*46:01): ≥ 20 µM
Kd (HLA-B*57:01): ≥ 20 µM
Kd (HLA-B*58:01 [10]): ≥ 20 µM

Sequence: IEVTNATEL
Kd (HLA-B*40:01 [2]; source organism: Influenza A virus): 0.0056 µM

Sequence: APYMVGDVI
Kd (HLA-C*05:01; source organism: SARS-CoV1): ≥ 20 µM
Kd (HLA-B*07:02 [11]): 0.139 µM
Kd (HLA-B*35:01 [12]): 11 µM
Kd (HLA-B*51:01): 0.08 µM
Kd (HLA-B*53:01): 3.58 µM
Kd (HLA-B*54:01): ≥ 27.3 µM

Sequence: IPNSLHSLS
IC50 (HLA-B*07:02 [1]; source organism: Vaccinia virus Copenhagen): ≥ 136 µM

Sequence: FAADKDSLY
Kd (HLA-C*08:02; source organism: Salmonella enterica subsp. enterica serovar Typhi str. CT18): ≥ 20 µM
Kd (HLA-A*01:01 [13]; [24]): 0.313 µM
Kd (HLA-B*35:01 [14]; [24]): 0.0002 µM

Sequence: STDIPSATK
IC50 (HLA-A*01:01 [3]; source organism: Sudan ebolavirus): ≥ 76.4 µM
IC50 (HLA-A*03:01 [15]): 65.6 µM
IC50 (HLA-A*11:01 [16]): 1.47 µM

Sequence: APPPQRAAM
Kd (HLA-C*14:02; source organism: Mycobacterium tuberculosis variant bovis BCG str. Pasteur 1173P2): 0.061 µM

Kd (HLA-A*03:01 [17]): 2.2 µM
Kd (HLA-B*15:01; [25]): 0.247 µM
Kd (HLA-B*58:01 [18]; [25]): 0.418 µM
Sequence: KVGITGFCY

Sequence: ISASLAALF
Kd (HLA-B*58:01 [18]; source organism: Bacillus anthracis str. A0488): 0.0017 µM

Sequence: AKRYEKSAM
Kd (HLA-C*14:02; source organism: Yersinia pestis Antiqua): 1.05 µM
Kd (HLA-B*07:02 [19]): ≥ 20 µM

Kd (HLA-A*01:01 [13]; [25]): 0.481 µM
Kd (HLA-A*03:01 [17]): 0.0422 µM
Kd (HLA-A*26:01): ≥ 20 µM
Kd (HLA-B*15:01; [25]): 0.084 µM
Kd (HLA-B*35:01 [14]; [25]): 0.0592 µM
Kd (HLA-B*58:01 [18]; [25]): ≥ 20 µM
Sequence: RINEGWPAY

Sequence: MENMLDLLM
Kd (HLA-B*40:01 [2]; source organism: Yersinia frederiksenii ATCC 33641): 0.0102 µM
